IC50 and Kd data for four molecules are collected here from patent publication US20040229242, “Methods of capturing, detecting and quantifying RNA:DNA hybrids and a modified RNase H useful therein” (published 2004).

Data set [1] has as its target T1, RNase H1 D94G/D134A mutant (Escherichia coli, UniProt P0A7Y4 SEQ:1-155).
T1 chain: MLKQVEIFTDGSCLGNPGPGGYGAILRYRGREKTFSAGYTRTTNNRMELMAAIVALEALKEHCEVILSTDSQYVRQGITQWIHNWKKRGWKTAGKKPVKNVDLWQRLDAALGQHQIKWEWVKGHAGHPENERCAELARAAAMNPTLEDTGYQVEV
The data set is described as follows: competition. To be noted: 25 C.

Data set [2] deals with T2, E. coli RNase H1 D134A (nuclease-deficient parent) (Escherichia coli) (UniProt P0A7Y4).
T2 sequence: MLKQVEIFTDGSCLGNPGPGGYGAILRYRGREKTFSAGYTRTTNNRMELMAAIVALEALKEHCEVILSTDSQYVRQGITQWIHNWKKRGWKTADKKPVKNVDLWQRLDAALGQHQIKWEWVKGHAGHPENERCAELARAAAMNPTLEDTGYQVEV
The data set can be described thus: competition. As to conditions: 25 C.

Data set [3] addresses T1, RNase H1 D94G/D134A mutant. The data set can be described thus: filter; 50 mM NaCl, 1 mM EDTA, HEPES pH 7.0, 25 C.
In data set [4] the target is T3, E. coli RNase H1 D134A (nuclease-deficient parent) (Escherichia coli, UniProt P0A7Y4 SEQ:1-155).
T3 chain: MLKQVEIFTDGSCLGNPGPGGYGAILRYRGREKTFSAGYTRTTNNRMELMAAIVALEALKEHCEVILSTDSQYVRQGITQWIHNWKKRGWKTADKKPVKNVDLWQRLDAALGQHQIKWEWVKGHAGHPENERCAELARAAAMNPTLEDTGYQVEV
The data set can be described thus: filter; 50 mM NaCl, 1 mM EDTA, HEPES pH 7.0, 25 C. To be noted: label: 32P.

Data set [5] deals with T3, E. coli RNase H1 D134A …. The data set is described as follows: FP filter; nitrocellulose filter binding; 50 mM NaCl, 1 mM EDTA, 20 mM HEPES pH 7.0, 25 C. To be noted: label: 32P end label on DNA strand. The method, then:
In the experiment, serial dilutions of the indicated RNase H proteins were individually incubated in 1×FB Buffer [100 μg/ml BSA; 50 mM NaCl; 1 mM EDTA; 20 mM HEPES, pH 7.0] with a radiolabeled RNA:DNA hybrid of the following sequence:
After 30 minutes incubation at 25° C., the 50 μl reactions were filtered quickly through buffer-equilibrated nitrocellulose filters and washed twice with 500 μl Wash Buffer [10% Glycerol, 50 mM NaCl; 1 mM EDTA; 20 mM HEPES, pH 7.0]. […] The amount of RNA:DNA hybrid retained by each filter was directly quantitated from the damp filters by Cerenkov counting. Each protein was tested in triplicate and the results averaged. Control filters to determine total input radioactivity were used to calculate the percent of total input hybrid bound. SDS-PAGE and densitometry re-confirmed protein concentrations.

Where [6] appears, read: competition vs RNA:DNA#1, filter binding.
Setting [7] is: competition vs RNA:DNA#2, filter binding.
Setting [8] is: competition vs RNA:DNA#3, filter binding.

On to “heat-denatured sheared salmon sperm ssDNA”, for which the IC50 – broadly, the concentration that gives 50% inhibition – in data set [1] (setting [6]) was 9 µM; in data set [1] (setting [7]), 15 µM; in data set [1] (setting [8]), 10 µM; in data set [2] (setting [6]) it was 1.7 µM; in data set [2] (setting [7]) it was 5.5 µM; in data set [2] (setting [8]) it was 2.9 µM.

B1: RNA:DNA#2 (DNA:RNA)
RNA: GGCGAACAGGACUGCGUAUGAUAGG
DNA: CCTATCATACGCAGTCCTGTTCGCC
With B1, the Kd (commonly the free concentration of one partner at which half of the binding sites on the other are occupied at equilibrium, for simple one-to-one binding) is 0.006 µM in data set [3] (label: 32P) and 0.008 µM in data set [4].

B2: RNA:DNA#1 (DNA:RNA)
RNA: GGACCGGAAAGGUACGAGCAUGUGA
DNA: TCACATGCTCGTACCTTTCCGGTCC
B2: the figures for the Kd in data set [3] (label: 32P end label on DNA strand) and in data set [5] were 0.0051 µM and 0.01 µM, respectively.

B3: RNA:DNA#3 (DNA:RNA)
RNA: AGUUCGACGAGCAUGGAGAGGUCAG
DNA: CTGACCTCTCCATGCTCGTCGAACT
With B3, the dissociation constant Kd in data set [3] (label: 32P) came out at 0.0055 µM; in data set [4] it was 0.008 µM.
